Legend:
[1] = target: human Factor XII (FXII), Enzyme Research Laboratories Cat #1212 (human); assay: SPR Biacore, mAb captured by anti-hFc, 37 C
[2] = target: human activated Factor XII (FXIIa), Enzyme Research Laboratories Cat #1212a (human); assay: SPR Biacore, mAb captured by anti-hFc, 37 C
[3] = target: human Factor XII (FXII), Enzyme Research Laboratories Cat #1212 (human); assay: SPR Biacore, mAb captured by anti-hFc, 25 C
[4] = target: human activated Factor XII (FXIIa), Enzyme Research Laboratories Cat #1212a (human); assay: SPR Biacore, mAb captured by anti-hFc, 25 C

100 nM Ag Bound (RU) [1] [RU]	100 nM Ag Bound (RU) [2] [RU]	Kd [2] [nM]	koff [2] [s⁻¹]	kon [2] [M⁻¹ s⁻¹]	t½ [2] [min]	100 nM Ag Bound (RU) [3] [RU]	100 nM Ag Bound (RU) [4] [RU]	Kd [4] [nM]	koff [4] [s⁻¹]	kon [4] [M⁻¹ s⁻¹]	t½ [4] [min]	Kd [1] [nM]	koff [1] [s⁻¹]	kon [1] [M⁻¹ s⁻¹]	t½ [1] [h]	Kd [3] [nM]	koff [3] [s⁻¹]	kon [3] [M⁻¹ s⁻¹]	t½ [3] [min]	Substance
9.9	312	8.25	0.00515	624000	2	9.5	297	2.54	0.000996	392000	11.6									Comparator 1, a monoclonal antibody against human FXII/FXIIa having VH/VL sequences of antibody 3F7 according to U.S. Pat. No. 9,518,127 (CSL Behring GmbH)
83.8	187	2.76	0.02	7.25e+06	1	86.1	197	2.93	0.00451	1.54e+06	2.6	45.3	0.0542	1.2e+06	0	37.3	0.00247	66100	4.7	Comparator 2, a human monoclonal antibody against human FXII having VH/VL sequences of antibody 15H8 according to U.S. Pat. No. 9,574,013 (Vanderbilt Univ./Aronora)
10.3	-2.7					10	0.1													Isotype control (antibody)

Reference: patent publication US12068729
